Source: paper PMC8500521

Biological target: HR2 (heptad repeat 2) polypeptide of SARS-CoV-2 spike protein (SARS-CoV-2) (UniProt P0DTC2)
Assay: AUC; sedimentation velocity, 50,000 rpm, 20 C, 50 mM NaCl, 25 mM sodium phosphate pH 6.0, no detergent; monomer to tetramer

“HR2 (heptad repeat 2) polypeptide of SARS-CoV-2 spike protein (from UniProt P0DTC2 1171-1207) (domain or fragment)” gave a monomer population at 250 uM of 10% and a stoichiometry N of 4.
